We go through two molecules from publication PMC6009593 (Nucleic Acids Research, 2018).

As usually defined, the Kd is the constant that tells how readily two partners part at equilibrium. A high value points to lower affinity.

B2: Pyrococcus furiosus Proliferating Cell Nuclear Antigen (PfuPCNA) (natural protein)
chain: MPFEIVFEGAKEFAQLIDTASKLIDEAAFKVTEDGISMRAMDPSRVVLIDLNLPSSIFSKYEVVEPETIGVNMDHLKKILKRGKAKDTLILKKGEENFLEITIQGTATRTFRVPLIDVEEMEVDLPELPFTAKVVVLGEVLKDAVKDASLVSDSIKFIARENEFIMKAEGETQEVEIKLTLEDEGLLDIEVQEETKSAYGVSYLSDMVKGLGKADEVTIKFGNEMPMQMEYYIRDEGRLTFLLAPRVEE

Test [1] deals with B2. The test is described as follows: SPR.
For test [2], the target named is Pyrococcus furiosus Mre11–Rad50 complex, wild type, full length (PfuMR wt) (Pyrococcus furiosus, UniProt Q8U1N9 1-426; P58301 1-882). In words: SPR.
Chain of Pyrococcus furiosus Mre11–Rad50 complex, wild type, full length (PfuMR wt) (P58301 whole entry, one chain of several): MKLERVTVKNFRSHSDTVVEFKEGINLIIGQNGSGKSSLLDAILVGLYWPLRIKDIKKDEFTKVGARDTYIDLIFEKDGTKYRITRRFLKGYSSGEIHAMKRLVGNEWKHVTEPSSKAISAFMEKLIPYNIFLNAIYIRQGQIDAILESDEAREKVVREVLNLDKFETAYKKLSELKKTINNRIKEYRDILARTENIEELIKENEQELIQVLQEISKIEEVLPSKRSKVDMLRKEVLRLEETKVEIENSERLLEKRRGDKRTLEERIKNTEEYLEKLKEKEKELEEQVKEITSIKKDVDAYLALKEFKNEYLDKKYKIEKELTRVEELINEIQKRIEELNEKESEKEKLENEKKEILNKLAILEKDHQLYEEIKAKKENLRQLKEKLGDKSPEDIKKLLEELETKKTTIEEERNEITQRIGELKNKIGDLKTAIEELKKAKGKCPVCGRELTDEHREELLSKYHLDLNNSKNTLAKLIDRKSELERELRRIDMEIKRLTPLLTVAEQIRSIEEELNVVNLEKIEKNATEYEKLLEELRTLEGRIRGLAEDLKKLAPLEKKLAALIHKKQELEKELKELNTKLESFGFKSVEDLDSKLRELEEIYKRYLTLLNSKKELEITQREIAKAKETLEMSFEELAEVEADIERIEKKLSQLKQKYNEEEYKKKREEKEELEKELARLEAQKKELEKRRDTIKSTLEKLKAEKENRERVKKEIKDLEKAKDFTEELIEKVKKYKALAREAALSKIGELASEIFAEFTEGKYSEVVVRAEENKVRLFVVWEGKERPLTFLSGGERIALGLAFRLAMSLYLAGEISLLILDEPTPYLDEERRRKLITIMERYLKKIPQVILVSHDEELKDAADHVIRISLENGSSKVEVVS

B1: PIP-like Mre11 peptide (PfuMre11 412–424) (peptide)
peptide: Ac-KKKRGTLDSWLGG-NH2
As to B1, the Kd in test [1] was 4.05 µM.
B2 returned a Kd in test [2] of around 0.00407 µM.
